Measured values: the supplement of paper PMC10126150
± gives the standard deviation of the averaged measurements.

System: ATP
Test: switch fluorescence ratio, 500 uM ATP over buffer (Cy3 cluster intensity, sum of 5 cycles each) (fold (ratio)); higher = stronger signal-on switching upon ATP binding; sequences stand for … in TCGTCGGCAGCGTCAGATGTGTATAAGAGACAGTTTTTTTTTTTTTTTTTTTTTTTTT…TC
Conditions: aptamer strand: ATP DNA aptamer (quencher-CACCTGGGGGAGTATTGCGGAGGAAGG + anchor), 100 nM annealed; ATP concentration: 500 uM
Outline: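 The fluorescence ratio divides summed target-cycle Cy3 intensity by summed buffer-cycle Cy3 intensity for each cluster and is averaged per switch-domain sequence. Cy3-labelled switching-strand clusters on a modified Illumina MiSeq flow-cell were annealed to 100 nM quencher-labelled ATP aptamer, then imaged in selection buffer and again after 15 min with 500 uM ATP at 22 °C. Five such cycles were run, with NaOH stripping and re-annealing between them, and clusters outside 100-1000 RFU were excluded.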
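Also: ATP exposure 15 min at 22 °C before imaging.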

| Sequence | switch fluorescence ratio |
| --- | --- |
| AATGTTAGGA | 0.974 ± 0.017 |
| GTTTTGAGGG | 1.01 ± 0.016 |
| GTGGCTGAGG | 1.004 ± 0.0082 |
| CGGTGGGGGA | 0.986 ± 0.025 |
| GCGGGAGGGT | 1.015 ± 0.0081 |
| TAGCGGCGTC | 1 ± 0.098 |
| AGGAGCTGAA | 0.987 ± 0.021 |
| TCCAAGTGTT | 0.998 ± 0.035 |
| GGTATCGAGG | 1.01 ± 0.015 |
| TGATTGACGG | 0.975 ± 0.015 |
| TGGTGTGTAC | 1.06 ± 0.076 |
| TTCAATTGGT | 0.974 ± 0.033 |
| TAGGCTATAT | 1.01 ± 0.042 |
| GCCCGGGATT | 1 ± 0.012 |
| GGGTGCCAGT | 0.963 ± 0.011 |
| TCAGGACGGA | 1.018 ± 0.0015 |
| GGTATATTCC | 1.02 ± 0.024 |
| AACTGGCTGC | 0.993 ± 0.061 |
| TACAAGGGCA | 1.01 ± 0.037 |
| AAGGGGCAAT | 1.01 ± 0.055 |
| TGTTAAAATC | 0.984 ± 0.058 |
| TTCATTTGTT | 1.11 ± 0.16 |
| CCGATAGGCA | 1.124 ± 0.0038 |
| TAAGGAAGGG | 1.004 ± 0.0075 |
| GTTATAGGGT | 1.01 ± 0.02 |

| Sequence | switch fluorescence ratio |
| --- | --- |
| TAGGGCATTG | 1.01 ± 0.012 |
| GTTAGTGGGG | 0.992 ± 0.014 |
| ATAAGAGACT | 1.01 ± 0.03 |
| ATTTTGCAAT | 1.27 ± 0.037 |
| AAACAAGCTT | 1.02 ± 0.021 |
| TATGTGGGTA | 0.983 ± 0.026 |
| AACGTATATA | 1.13 ± 0.026 |
| CACTACGGGA | 1.05 ± 0.012 |
| CTGAATTGGT | 0.975 ± 0.012 |
| ATTTTCTTTG | 0.9958 ± 0.0089 |
| ACGGGCGGGG | 1.02 ± 0.021 |
| CTAGATATGT | 0.99 ± 0.011 |
| TACTGGGGAC | 1.03 ± 0.035 |
| GGCGGGGGCG | 1.07 ± 0.024 |
| AAATCGTGGA | 0.987 ± 0.011 |
| TAGTAAGGGG | 0.969 ± 0.051 |
| CGTTCGTGTG | 1.017 ± 0.0044 |
| TGATGGGTGC | 1.04 ± 0.045 |
| GATGATGGGA | 0.97941 ± 0.00096 |
| AGGAGCTTTC | 1.08 ± 0.039 |
| ACATGGGGA | 1.002 ± 0.0018 |
| GAAGGGAGGA | 1.03 ± 0.077 |
| ATATAACATT | 1.05 ± 0.018 |
| ATGGGTTTTC | 0.981 ± 0.03 |
| GGTGTGATTT | 1 ± 0.025 |

| Sequence | switch fluorescence ratio |
| --- | --- |
| TAGGAGTGGG | 1 ± 0.01 |
| CGGGTATTTA | 1.01 ± 0.025 |
| TGTTCTAGA | 0.987 ± 0.053 |
| AATTTTAGTA | 1.02 ± 0.019 |
| CGTTCCGGTC | 1.06 ± 0.054 |
| GGGTTGGAAT | 0.9878 ± 0.003 |
| CGGCGGCACG | 0.998 ± 0.086 |
| GAACGTTTGC | 1.11 ± 0.017 |
| GGGAGGGAAA | 1.04 ± 0.056 |
| GACATCAGAG | 1.02 ± 0.053 |
| GAAGAGAGGC | 0.96 ± 0.024 |
| TGAACCAAGC | 1.08 ± 0.011 |
| TTTAACCTTT | 1.05 ± 0.051 |
| TTTCTACGCG | 1.01 ± 0.034 |
| CGTGATAAAG | 0.9911 ± 0.0089 |
| TGTCAGAAAT | 0.992 ± 0.02 |
| TTTGGGACAT | 1.01 ± 0.025 |
| AACATAAAAA | 1.26 ± 0.4 |
| TCAAAAGGTG | 1.33 ± 0.22 |
| CCCAGTCAGA | 1.033 ± 0.0078 |
| GATTTTTAGC | 1 ± 0.065 |
| GTTAGTACAG | 1.01 ± 0.031 |
| GACTATGAGA | 0.9936 ± 0.0039 |
| GGTTGCGGGT | 0.9874 ± 0.0056 |
| TCGATAGACG | 1.02 ± 0.018 |

| Sequence | switch fluorescence ratio |
| --- | --- |
| CGTGAGTGGT | 1.018 ± 0.0037 |
| AAGTGGTTAG | 0.98 ± 0.027 |
| AGGGGAAAGT | 0.954 ± 0.052 |
| GTAATGGAAT | 0.9912 ± 0.0078 |
| GTTCGAAGAC | 1.015 ± 0.0023 |
| ATTTTGTGTT | 0.988 ± 0.022 |
| TCGTGGTTTC | 0.9823 ± 0.0069 |
| TAACACCTCT | 0.988 ± 0.068 |
| TTAATCGTGT | 0.995 ± 0.037 |
| GTGTAACCTG | 1.01 ± 0.054 |
| GAATAGTTTT | 1.01 ± 0.02 |
| GGTAGTCGGG | 0.968 ± 0.014 |
| TCCGGTCGAT | 1.127 ± 0.0072 |
| AATCGGGGGT | 1.002 ± 0.0097 |
| TGGGATACGT | 1.55 ± 0.79 |
| GGTATATAAA | 1.003 ± 0.0029 |
| TAACAGGGGT | 1.31 ± 0.43 |
| TTGAAAAAGG | 0.968 ± 0.018 |
| GCTGTACGAT | 1.16 ± 0.012 |
| GGATTAAAAT | 0.997 ± 0.028 |
| ATTAGAGGGA | 1.01 ± 0.029 |
| CATAGGTCGG | 0.974 ± 0.021 |
| CTGAATGCAG | 1.069 ± 0.0077 |
| ATACAATAGA | 1.004 ± 0.0087 |
| CGCATGATGT | 1.03 ± 0.018 |

| Sequence | switch fluorescence ratio |
| --- | --- |
| TACAATTGAA | 1 ± 0.025 |
| GCTGGCAGTG | 0.972 ± 0.029 |
| CTTAAAGTTA | 1.01 ± 0.018 |
| ACGGGTATTG | 1.02 ± 0.034 |
| GACTTTTTGG | 0.998 ± 0.027 |
| GGGGACTCTT | 0.977 ± 0.023 |
| GAAAGGGGTC | 1.01 ± 0.074 |
| AACTTGAAAT | 1.47 ± 0.69 |
| ATAAAGAAGT | 1.007 ± 0.0052 |
| TCTGTGACTA | 1.06 ± 0.044 |
| TCAATAGATG | 0.998 ± 0.032 |
| TCTCAGTCCA | 1.02 ± 0.039 |
| AAACATTATT | 1 ± 0.063 |
| CTAAGTTTGG | 1.018 ± 0.0037 |
| GAGGGGCGTG | 1 ± 0.022 |
| AGTTTATGTG | 0.9746 ± 0.0073 |
| AGAGTATTGC | 1.04 ± 0.16 |
| AGACGTGCGT | 1.01 ± 0.048 |
| TAAGGGACGT | 1.01 ± 0.034 |
| TCTGGGGAGG | 1 ± 0.02 |
| GGGGGGCAAC | 1.03 ± 0.099 |
| ATCTGGGGCC | 1.01 ± 0.012 |
| TTGGAAGATT | 0.9881 ± 0.003 |
| TTGGAAATTT | 1.05 ± 0.17 |
| AGCGGAGGGG | 1.04 ± 0.033 |

| Sequence | switch fluorescence ratio |
| --- | --- |
| CTAGTTTTTA | 1.009 ± 0.007 |
| GTTAGGGGTG | 1.02 ± 0.023 |
| TCTATGATAG | 0.971 ± 0.013 |
| TGTTGCGTGC | 1.03 ± 0.038 |
| ATACCTTCGT | 1.692 ± 0.012 |
| GGGAAGGGGA | 1.04 ± 0.12 |
| GGGAAACCGG | 1.06 ± 0.018 |
| TATATCGTC | 1.19 ± 0.31 |
| GAAGCGGGTG | 1.1 ± 0.1 |
| AGTCATATAG | 1.062 ± 0.0056 |
| TTTCCTGTGT | 1.01 ± 0.017 |
| CAAGTCGTTT | 1.017 ± 0.0023 |
| GGGCTTTGGC | 1 ± 0.025 |
| TATTTTTACA | 1.012 ± 0.0086 |
| CCGGGGAATG | 1.04 ± 0.052 |
| CCTAGCTG | 1.02 ± 0.056 |
| TACGCTGACG | 1.13 ± 0.087 |
| ATTATGAATG | 0.989 ± 0.0071 |
| GGCGGGTAAT | 1.04 ± 0.09 |
| TCTAGTGGGG | 1.01 ± 0.028 |
| AGATAAACTC | 1.03 ± 0.051 |
| TTTCCAATCT | 1.08 ± 0.13 |
| CGCTATGTGG | 1.02 ± 0.041 |
| TAGAATTATC | 1.017 ± 0.0056 |
| GCGGGTGGGA | 1.02 ± 0.034 |

| Sequence | switch fluorescence ratio |
| --- | --- |
| TGGGAGGTCG | 1.09 ± 0.03 |
| AGGGCTCGTT | 0.9801 ± 0.0094 |
| CATTTATAGT | 0.9799 ± 0.0083 |
| TTGCGATGGT | 1.02 ± 0.012 |
| GTGACTTTCT | 0.99 ± 0.017 |
| TTTTCCTTCT | 1.09 ± 0.089 |
| ATGTTCGTCA | 0.988 ± 0.044 |
| TTTGTGGATT | 1.06 ± 0.069 |
| GTTTGTGGGG | 0.991 ± 0.021 |
| GATCCGAGTT | 0.99 ± 0.034 |
| TTGGGGCTGA | 0.993 ± 0.037 |
| GGTTGCATCG | 0.986 ± 0.012 |
| CTCGGGGTCG | 0.994 ± 0.047 |
| GGGCCCAAAG | 1 ± 0.021 |
| CCTAGAGGGT | 1.07 ± 0.024 |
| GTGGGATGAC | 1.01 ± 0.024 |
| CCTGCATGTG | 1.26 ± 0.02 |
| CTAAAAGGCG | 1.06 ± 0.04 |
| CCAAGTGGGC | 1.03 ± 0.053 |
| TGCTGTACGA | 1.11 ± 0.012 |
| TCAATTGAGA | 1.02 ± 0.01 |
| TGGAAGGTAT | 0.9795 ± 0.0087 |
| TGGGAATAGT | 1 ± 0.049 |
| AAATGACAGT | 1.01 ± 0.028 |
| GTTGGTCGTG | 1 ± 0.038 |

| Sequence | switch fluorescence ratio |
| --- | --- |
| TCGGGTGTTG | 1.03 ± 0.048 |
| GTGTAAATGG | 1.01 ± 0.013 |
| TTTTCCTATG | 0.977 ± 0.019 |
| CGACTAGGGG | 1.01 ± 0.024 |
| ACTATGGGGC | 1.01 ± 0.081 |
| TTCAGGTTTC | 1 ± 0.037 |
| AGGGATCGGT | 0.979 ± 0.025 |
| CATGTAGCCG | 1.01 ± 0.061 |
| TGCAATTACT | 3.21 ± 0.24 |
| TTTTCTCGCT | 0.967 ± 0.02 |
| TCGACGGAGT | 1.114 ± 0.00049 |
| TACGGAAGGT | 1.06 ± 0.034 |
| CAAGTTTACC | 1.037 ± 0.0023 |
| TTTTAATATT | 1.05 ± 0.11 |
| ATAGTTTAGG | 1.016 ± 0.0076 |
| TTGGATTTTG | 0.978 ± 0.043 |
| GGGTGGGCGC | 1.01 ± 0.058 |
| ATTATTATGT | 0.978 ± 0.01 |
| GGTCAGGTGA | 0.972 ± 0.073 |
| TGGGGCTGTG | 0.991 ± 0.014 |
| TTCGGTTTGG | 0.9952 ± 0.0061 |
| TAGGCAGGGT | 1.56 ± 0.78 |
| TAATAGTAAT | 1.02 ± 0.011 |
| CATGGTGCCC | 1.03 ± 0.026 |
| TAAAGCAGCT | 0.965 ± 0.04 |
